Legend:
[1] = target: systemic lupus erythematosus autoantigen SSB (UniProt P05455); assay: AtheNA Multi-Lyte ANA, Ab at 25 ug/ml
[2] = target: histidine-tRNA ligase (Jo-1) (UniProt P12081); assay: AtheNA Multi-Lyte ANA, Ab at 25 ug/ml
[3] = target: histones; assay: AtheNA Multi-Lyte ANA, Ab at 25 ug/ml
[4] = target: sclerosis autoantigen (Scl-70) (UniProt P11387); assay: AtheNA Multi-Lyte ANA, Ab at 25 ug/ml
[5] = target: centromere B (CentB) (UniProt P07199); assay: AtheNA Multi-Lyte ANA, Ab at 25 ug/ml
[6] = target: Sm (sphingomyelin); assay: AtheNA Multi-Lyte ANA, Ab at 25 ug/ml
[7] = target: ribonucleoprotein (RNP); assay: AtheNA Multi-Lyte ANA, Ab at 25 ug/ml
[8] = target: systemic lupus erythematosus autoantigen SSA; assay: AtheNA Multi-Lyte ANA, Ab at 25 ug/ml
[9] = target: systemic lupus erythematosus autoantigen SSB (UniProt P05455); assay: AtheNA Multi-Lyte ANA, Ab at 50 ug/ml
[10] = target: histidine-tRNA ligase (Jo-1) (UniProt P12081); assay: AtheNA Multi-Lyte ANA, Ab at 50 ug/ml
[11] = target: histones; assay: AtheNA Multi-Lyte ANA, Ab at 50 ug/ml
[12] = target: sclerosis autoantigen (Scl-70) (UniProt P11387); assay: AtheNA Multi-Lyte ANA, Ab at 50 ug/ml
[13] = target: centromere B (CentB) (UniProt P07199); assay: AtheNA Multi-Lyte ANA, Ab at 50 ug/ml
[14] = target: Sm (sphingomyelin); assay: AtheNA Multi-Lyte ANA, Ab at 50 ug/ml
[15] = target: ribonucleoprotein (RNP); assay: AtheNA Multi-Lyte ANA, Ab at 50 ug/ml
[16] = target: systemic lupus erythematosus autoantigen SSA; assay: AtheNA Multi-Lyte ANA, Ab at 50 ug/ml

Chain of systemic lupus erythematosus autoantigen SSB (P05455 whole entry): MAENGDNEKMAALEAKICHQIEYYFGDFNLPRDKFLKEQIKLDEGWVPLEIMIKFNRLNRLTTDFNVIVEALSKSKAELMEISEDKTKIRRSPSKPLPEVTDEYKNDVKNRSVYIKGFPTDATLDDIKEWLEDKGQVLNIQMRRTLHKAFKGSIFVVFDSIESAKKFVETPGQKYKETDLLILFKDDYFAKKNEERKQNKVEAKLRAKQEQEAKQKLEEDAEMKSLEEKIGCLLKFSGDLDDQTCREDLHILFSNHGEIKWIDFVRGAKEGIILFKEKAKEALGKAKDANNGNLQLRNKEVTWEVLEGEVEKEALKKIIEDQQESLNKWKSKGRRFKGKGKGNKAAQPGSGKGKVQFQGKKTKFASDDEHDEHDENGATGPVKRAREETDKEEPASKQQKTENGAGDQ
Chain of sclerosis autoantigen (Scl-70) (P11387 2-765 limits assumed): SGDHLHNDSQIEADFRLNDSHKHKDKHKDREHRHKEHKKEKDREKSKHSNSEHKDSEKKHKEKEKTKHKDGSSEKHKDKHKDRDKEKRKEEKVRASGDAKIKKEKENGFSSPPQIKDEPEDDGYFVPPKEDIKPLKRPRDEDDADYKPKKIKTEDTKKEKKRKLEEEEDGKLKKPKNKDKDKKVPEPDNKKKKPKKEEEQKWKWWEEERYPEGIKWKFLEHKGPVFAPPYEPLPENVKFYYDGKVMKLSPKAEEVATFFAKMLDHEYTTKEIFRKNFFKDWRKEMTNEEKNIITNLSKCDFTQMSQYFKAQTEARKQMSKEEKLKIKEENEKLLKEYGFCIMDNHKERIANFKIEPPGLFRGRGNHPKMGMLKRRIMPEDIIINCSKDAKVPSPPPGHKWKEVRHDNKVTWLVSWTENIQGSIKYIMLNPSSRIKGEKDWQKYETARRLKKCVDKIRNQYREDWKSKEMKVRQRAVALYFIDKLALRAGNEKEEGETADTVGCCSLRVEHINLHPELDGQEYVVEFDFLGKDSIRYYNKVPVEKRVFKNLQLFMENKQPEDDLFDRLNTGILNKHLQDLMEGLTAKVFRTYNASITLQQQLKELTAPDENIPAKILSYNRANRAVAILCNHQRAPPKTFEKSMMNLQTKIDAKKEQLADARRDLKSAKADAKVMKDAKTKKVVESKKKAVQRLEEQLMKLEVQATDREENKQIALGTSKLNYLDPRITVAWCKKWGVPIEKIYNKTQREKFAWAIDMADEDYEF
Chain of histidine-tRNA ligase (Jo-1) (P12081 2-509): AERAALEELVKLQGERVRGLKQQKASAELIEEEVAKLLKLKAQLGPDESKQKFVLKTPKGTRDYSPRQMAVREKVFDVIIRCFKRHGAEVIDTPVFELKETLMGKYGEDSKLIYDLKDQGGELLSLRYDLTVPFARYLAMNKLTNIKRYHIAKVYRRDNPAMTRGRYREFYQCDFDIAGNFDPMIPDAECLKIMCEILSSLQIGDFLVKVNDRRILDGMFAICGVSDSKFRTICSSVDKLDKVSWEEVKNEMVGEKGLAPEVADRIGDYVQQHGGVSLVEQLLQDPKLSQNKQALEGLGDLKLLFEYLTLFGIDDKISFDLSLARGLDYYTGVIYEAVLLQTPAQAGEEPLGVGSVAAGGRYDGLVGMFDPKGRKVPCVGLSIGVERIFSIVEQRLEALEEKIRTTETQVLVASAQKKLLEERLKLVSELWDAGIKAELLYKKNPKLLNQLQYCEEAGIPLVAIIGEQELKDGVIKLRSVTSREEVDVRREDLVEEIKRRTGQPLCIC
Chain of centromere B (CentB) (P07199 2-599): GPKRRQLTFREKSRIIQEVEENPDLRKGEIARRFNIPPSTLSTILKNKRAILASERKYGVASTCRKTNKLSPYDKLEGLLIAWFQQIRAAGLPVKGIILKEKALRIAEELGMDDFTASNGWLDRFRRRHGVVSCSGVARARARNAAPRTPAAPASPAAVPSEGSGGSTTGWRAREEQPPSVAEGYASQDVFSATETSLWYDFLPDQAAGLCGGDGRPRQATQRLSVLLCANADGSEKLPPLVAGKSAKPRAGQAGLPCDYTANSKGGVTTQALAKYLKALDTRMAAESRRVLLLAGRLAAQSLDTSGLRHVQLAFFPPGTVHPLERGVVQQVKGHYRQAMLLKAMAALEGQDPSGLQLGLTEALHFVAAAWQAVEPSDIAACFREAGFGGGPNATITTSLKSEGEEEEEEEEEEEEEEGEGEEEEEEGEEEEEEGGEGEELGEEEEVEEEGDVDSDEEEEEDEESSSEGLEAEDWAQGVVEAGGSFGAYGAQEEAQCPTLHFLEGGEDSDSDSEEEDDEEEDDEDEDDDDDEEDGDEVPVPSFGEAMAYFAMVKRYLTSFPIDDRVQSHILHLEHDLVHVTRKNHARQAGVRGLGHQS

| AtheNA signal [1] | AtheNA signal [2] | AtheNA signal [3] | AtheNA signal [4] | AtheNA signal [5] | AtheNA signal [6] | AtheNA signal [7] | AtheNA signal [8] | AtheNA signal [9] | AtheNA signal [10] | AtheNA signal [11] | AtheNA signal [12] | AtheNA signal [13] | AtheNA signal [14] | AtheNA signal [15] | AtheNA signal [16] | Substance |
| --- | --- | --- | --- | --- | --- | --- | --- | --- | --- | --- | --- | --- | --- | --- | --- | --- |
| 157 | 124 | 15 | 3 | 7 | 7 | 13 | 75 | 184 | 149 | 20 | 3 | 12 | 11 | 18 | 92 | 4e10 (Anti HIV, NIH AIDS Reagent Program) (antibody) |
| 6 | 1 | 1 | 2 | 1 | 2 | 3 | 2 | 5 | 1 | 2 | 1 | 1 | 4 | 1 | 0 | SYNAGIS (anti-RSV monoclonal antibody palivizumab) |

Reference: US20190315842A1
